According to patent US20230340114A1 (IMMUNE ONC THERAPEUTICS, published 2023):

B1: 4ab4ab-3 (bispecific antibody, human IgG1, kappa, L234A L235A)
heavy 1: not shown
heavy 2: EVQLVESGGGLVQPGGSLRLSCAASGFSLSSSYWISWVRQAPGKGLEWIGSIDSGSVGITYYATWVKGRFTISRDNSKNTLYLQMNSLRAEDTAVYYCARHGDNWALDLWGQGTLVTVLEDLKNVFPPEVAVFEPSEAEISHTQKATLVCLATGFYPDHVELSWWVNGKEVHSGVCTDPQPLKEQPALQDSRYALSSRLRVSATFWQNPRNHFRCQVQFYGLSENDEWTQDRAKPVTQIVSAEAWGRGGGGSGGGGSEVQLVESGGGLVQPGGSLRLSCAASGFSLSSSYWISWVRQAPGKGLEWIGSIDSGSVGITYYATWVKGRFTISRDNSKNTLYLQMNSLRAEDTAVYYCARHGDNWALDLWGQGTLVTVLEDLKNVFPPEVAVFEPSEAEISHTQKATLVCLATGFYPDHVELSWWVNGKEVHSGVCTDPQPLKEQPALQDSRYALSSRLRVSATFWQNPRNHFRCQVQFYGLSENDEWTQDRAKPVTQIVSAEAWGRASDKTHTCPPCPAPELLGGPSVFLFPPKPKDTLMISRTPEVTCVVVDVSHEDPEVKFNWYVDGVEVHNAKTKPREEQYNSTYRVVSVLTVLHQDWLNGKEYKCKVSNKALPAPIEKTISKAKGQPREPQVCTLPPSREEMTKNQVSLSCAVKGFYPSDIAVEWESNGQPENNYKTTPPVLDSDGSFFLVSKLTVDKSRWQQGNVFSCSVMHEALHNHYTQKSLSLSPG
light 1: not shown
light 2: DIQMTQSPSTLSASVGDRVTITCRASQSISSWLAWYQQKPGKAPKLLIYKASTLASGVPSRFSGSGSGTEFTLTISSLQPDDFATYYCQHGYIRGDLDNVFGGGTKVEIKPDIQNPDPAVYQLRDSKSSDKSVCLFTDFDSQTQVSQSKDSDVYITDKCVLDMRSMDFKSNSAVAWSQKSDFACANAFQNSIIPEDTFFPSPESS
notes: also called first-generation LILRB4/CD3 bispecific antibody No. 4
B2: 4ab3-4ab (bispecific antibody, human IgG1, kappa, L234A L235A)
heavy 1: not shown
heavy 2: EVQLVESGGGLVQPGGSLRLSCAASGFSLSSSYWISWVRQAPGKGLEWIGSIDSGSVGITYYATWVKGRFTISRDNSKNTLYLQMNSLRAEDTAVYYCARHGDNWALDLWGQGTLVTVLEDLKNVFPPEVAVFEPSEAEISHTQKATLVCLATGFYPDHVELSWWVNGKEVHSGVCTDPQPLKEQPALQDSRYALSSRLRVSATFWQNPRNHFRCQVQFYGLSENDEWTQDRAKPVTQIVSAEAWGRASDKTHTCPPCPAPEAAGGPSVFLFPPKPKDTLMISRTPEVTCVVVDVSHEDPEVKFNWYVDGVEVHNAKTKPREEQYNSTYRVVSVLTVLHQDWLNGKEYKCKVSNKALPAPIEKTISKAKGQPREPQVCTLPPSREEMTKNQVSLSCAVKGFYPSDIAVEWESNGQPENNYKTTPPVLDSDGSFFLVSKLTVDKSRWQQGNVFSCSVMHEALHNHYTQKSLSLSPG
light 1: not shown
light 2: B1 light 2
notes: also called first-generation LILRB4/CD3 bispecific antibody No. 6
B3: 44-3ab (bispecific antibody, human IgG1, kappa, L234A L235A)
heavy 1: not shown
heavy 2: EVQLVESGGGLVQPGGSLRLSCAASGFSLSSSYWISWVRQAPGKGLEWIGSIDSGSVGITYYATWVKGRFTISRDNSKNTLYLQMNSLRAEDTAVYYCARHGDNWALDLWGQGTLVTVSSASTKGPSVFPLAPSSKSTSGGTAALGCLVKDYFPEPVTVSWNSGALTSGVHTFPAVLQSSGLYSLSSVVTVPSSSLGTQTYICNVNHKPSNTKVDKRVEPKSCGGGGSGGGGSEVQLVESGGGLVQPGGSLRLSCAASGFSLSSSYWISWVRQAPGKGLEWIGSIDSGSVGITYYATWVKGRFTISRDNSKNTLYLQMNSLRAEDTAVYYCARHGDNWALDLWGQGTLVTVSSASTKGPSVFPLAPSSKSTSGGTAALGCLVKDYFPEPVTVSWNSGALTSGVHTFPAVLQSSGLYSLSSVVTVPSSSLGTQTYICNVNHKPSNTKVDKRVEPKSCDKTHTCPPCPAPEAAGGPSVFLFPPKPKDTLMISRTPEVTCVVVDVSHEDPEVKFNWYVDGVEVHNAKTKPREEQYNSTYRVVSVLTVLHQDWLNGKEYKCKVSNKALPAPIEKTISKAKGQPREPQVCTLPPSREEMTKNQVSLSCAVKGFYPSDIAVEWESNGQPENNYKTTPPVLDSDGSFFLVSKLTVDKSRWQQGNVFSCSVMHEALHNHYTQKSLSLSPG
light 1: DIVMTQSPDSLAVSLGERATINCKSSQSLLNSRTRKNYLAWYQQKPGQPPKLLIYWASTRQSGVPDRFSGSGSGTDFTLTISSLQAEDVAVYYCTQSHTLRTFGGGTKVEIKPDIQNPDPAVYQLRDSKSSDKSVCLFTDFDSQTQVSQSKDSDVYITDKCVLDMRSMDFKSNSAVAWSQKSDFACANAFQNSIIPEDTFFPSPESS
light 2: DIQMTQSPSTLSASVGDRVTITCRASQSISSWLAWYQQKPGKAPKLLIYKASTLASGVPSRFSGSGSGTEFTLTISSLQPDDFATYYCQHGYIRGDLDNVFGGGTKVEIKRTVAAPSVFIFPPSDEQLKSGTASVVCLLNNFYPREAKVQWKVDNALQSGNSQESVTEQDSKDSTYSLSSTLTLSKADYEKHKVYACEVTHQGLSSPVTKSFNRGEC
notes: also called first-generation LILRB4/CD3 bispecific antibody No. 3
B4: 43ab-4 (bispecific antibody, human IgG1, kappa, L234A L235A)
heavy 1: not shown
heavy 2: EVQLVESGGGLVQPGGSLRLSCAASGFSLSSSYWISWVRQAPGKGLEWIGSIDSGSVGITYYATWVKGRFTISRDNSKNTLYLQMNSLRAEDTAVYYCARHGDNWALDLWGQGTLVTVSSASTKGPSVFPLAPSSKSTSGGTAALGCLVKDYFPEPVTVSWNSGALTSGVHTFPAVLQSSGLYSLSSVVTVPSSSLGTQTYICNVNHKPSNTKVDKRVEPKSCDKTHTCPPCPAPEAAGGPSVFLFPPKPKDTLMISRTPEVTCVVVDVSHEDPEVKFNWYVDGVEVHNAKTKPREEQYNSTYRVVSVLTVLHQDWLNGKEYKCKVSNKALPAPIEKTISKAKGQPREPQVCTLPPSREEMTKNQVSLSCAVKGFYPSDIAVEWESNGQPENNYKTTPPVLDSDGSFFLVSKLTVDKSRWQQGNVFSCSVMHEALHNHYTQKSLSLSPG
light 1: B3 light 1
light 2: B3 light 2
notes: also called first-generation LILRB4/CD3 bispecific antibody No. 5

Target: T1, recombinant human LILRB4 protein (Sino Biological, cat #16742-H08H) (human, UniProt Q8NHJ6 22-259)
T1 construct: extracellular domain; also called LILRB4 recombinant protein (Sino Biological); Human LILRB4 ECD-his; not shown: his tag
Assay: SPR (Biacore 8K), LILRB4 immobilized on CM5 chip, bispecific as analyte, 1:1 model
Procedure: (§1) Binding affinities of first-generation bispecific antibodies to recombinant CD3e-CD3d heterodimer protein (Acro Biosystems) or LILRB4 recombinant protein (Sino Biological) were measured by surface plasmon resonance using a Biacore 8K instrument. Briefly, CD3e-CD3d or LILRB4 protein was immobilized on a CM5 chip with EDC and NHS according to standard protocols. […] The chip was regenerated using 10 mM glycine pH 1.5 as the regeneration buffer. The sensorgrams for reference channel Fc1 and buffer channel were subtracted from the test sensorgrams and the experimental data was fitted by 1:1 binding model.

Question: For B1, which Kd is on record?
Answer: 260 pM

Question: Which Kd does the source give for B2 here?
Answer: 260 pM

Question: B3 was tested. Which Kd did it give?
Answer: 230 pM

Question: B4 was tested. Which Kd did it give?
Answer: 290 pM

Target: recombinant CD3e-CD3d heterodimer protein (Acro Biosystems) (UniProt P07766 23-126; P04234 22-105)
Sequence (P07766 23-126 limits assumed, chain 1 of 2): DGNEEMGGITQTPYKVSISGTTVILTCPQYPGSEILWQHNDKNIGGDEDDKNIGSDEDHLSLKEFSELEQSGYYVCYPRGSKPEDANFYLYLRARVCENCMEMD
Sequence (P04234 22-105 limits assumed, chain 2 of 2): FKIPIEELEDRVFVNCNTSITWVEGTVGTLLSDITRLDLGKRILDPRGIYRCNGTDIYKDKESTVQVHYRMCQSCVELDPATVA
Assay: SPR (Biacore 8K), CD3e-CD3d immobilized on CM5 chip, bispecific as analyte, 1:1 model
Procedure: as §1

Question: With B1 as the binder, how does the Kd read?
Answer: 26800 pM

Question: With B2 as the binder, how does the Kd read?
Answer: 57300 pM

Question: For B3, which Kd is on record?
Answer: 42100 pM

Question: With B4 as the binder, how does the Kd read?
Answer: 47000 pM

Target: human LILRB4 expressed on cells (human, UniProt Q8NHJ6 22-448)
Assay: cell-based or functional assay

Question: With B1 as the binder, how does the “Monocyte (max %), Donor 1” value read?
Answer: 55%

Question: And the “Monocyte (max %), Donor 2” value?
Answer: 59%

Question: And the “Monocyte (max %), Donor 3” value?
Answer: 54.5%

Question: What about the “Monocyte killing EC50, Donor 1” value of the same binder?
Answer: 1.3 pM

Question: What about the “Monocyte killing EC50, Donor 2” value of the same binder?
Answer: 0.32 pM

Question: What about the “Monocyte killing EC50, Donor 3” value of the same binder?
Answer: 2.9 pM

Question: What about the “T-cell cytotoxicity, THP-1 (max %)” value of the same binder?
Answer: 98.3%

Question: What about the “T-cell cytotoxicity, THP-1 EC50 (estimated)” value of the same binder?
Answer: < 0.01 pM

Question: For B2, which “Monocyte (max %), Donor 1” value is on record?
Answer: 29%

Question: What about the “Monocyte (max %), Donor 2” value of the same binder?
Answer: 44%

Question: What about the “Monocyte (max %), Donor 3” value of the same binder?
Answer: 44%

Question: What about the “Monocyte killing EC50, Donor 1” value of the same binder?
Answer: 0.43 pM

Question: What about the “Monocyte killing EC50, Donor 2” value of the same binder?
Answer: 0.93 pM

Question: And the “Monocyte killing EC50, Donor 3” value?
Answer: 1.6 pM

Question: And the “T-cell cytotoxicity, THP-1 (max %)” value?
Answer: 98.1%

Question: What about the “T-cell cytotoxicity, THP-1 EC50 (estimated)” value of the same binder?
Answer: < 0.01 pM

Question: Which results are given for B3?
Answer: Monocyte (max %), Donor 1: 39%; Monocyte (max %), Donor 2: 30%; Monocyte (max %), Donor 3: 0%; Monocyte killing EC50, Donor 2: 3.4 pM; T-cell cytotoxicity, THP-1 (max %): 96.4%; T-cell cytotoxicity, THP-1 EC50: 0.43 pM

Question: With B4 as the binder, how does the “Monocyte (max %), Donor 1” value read?
Answer: 45%

Question: What about the “Monocyte (max %), Donor 2” value of the same binder?
Answer: 0%

Question: What about the “Monocyte (max %), Donor 3” value of the same binder?
Answer: 42%

Question: What about the “Monocyte killing EC50, Donor 1” value of the same binder?
Answer: 0.19 pM

Question: What about the “Monocyte killing EC50, Donor 3” value of the same binder?
Answer: 0.084 pM

Question: What about the “T-cell cytotoxicity, THP-1 (max %)” value of the same binder?
Answer: 98.7%

Question: What about the “T-cell cytotoxicity, THP-1 EC50 (estimated)” value of the same binder?
Answer: < 0.01 pM
